{"source": "paper PMC2798062", "key": {"[1]": {"tested_on": "C[C@H]1C=C2C=C[C@H](C)[C@H](CC[C@@H](O)C[C@@H](O)CC(=O)O)[C@H]2[C@@H](O)C1", "experiment": "purified protein", "type": "biochemical, Aspergillus terreus", "conditions": "2 mM DMB-SMMP fixed, 10% DMSO, 25°C"}, "[2]": {"tested_on": "CCC(C)(C)C(=O)SCCC(=O)OC", "experiment": "purified protein", "type": "biochemical, Aspergillus terreus", "conditions": "2 mM MJA fixed; 10% DMSO; table header prints mM^-1, text b12 prints mM; 25.0 °C"}}, "data": [{"substance": "LovD G0 (Aspergillus terreus; A190T/A86V/C40A/C60N/D12G/G275S/H161Y/K26E/L361M/V334D)", "values": [{"measurement": "Km", "setting": "[1]; mutant G6", "value": "700 ± 70", "unit": "µM"}, {"measurement": "kcat", "setting": "[1]; mutant G6", "value": "0.055 ± 0.001", "unit": "s⁻¹"}]}, {"substance": "LovD G0 (Aspergillus terreus; A190T/A86V/C40A/C60N/D12G/G275S/H161Y/K26E/V334F)", "values": [{"measurement": "Km", "setting": "[1]; mutant G7", "value": "700 ± 40", "unit": "µM"}, {"measurement": "kcat", "setting": "[1]; mutant G7", "value": "0.08 ± 0.001", "unit": "s⁻¹"}]}, {"substance": "LovD G0 (Aspergillus terreus; A190T/A86V/C40A/C60N/D12G/G275S)", "values": [{"measurement": "Km", "setting": "[1]; mutant G3", "value": "770 ± 110", "unit": "µM"}, {"measurement": "kcat", "setting": "[1]; mutant G3", "value": "0.031 ± 0.0015", "unit": "s⁻¹"}]}, {"substance": "LovD G0 (Aspergillus terreus; A86V/C40A/C60N)", "values": [{"measurement": "Km", "setting": "[1]; mutant G1", "value": "740 ± 160", "unit": "µM"}, {"measurement": "kcat", "setting": "[1]; mutant G1", "value": "0.0132 ± 0.0005", "unit": "s⁻¹"}]}, {"substance": "LovD G0 (Aspergillus terreus; A190T/A86V/C40A/C60N/D12G/G275S/H161Y/K26E)", "values": [{"measurement": "Km", "setting": "[1]; mutant G5", "value": "740 ± 30", "unit": "µM"}, {"measurement": "kcat", "setting": "[1]; mutant G5", "value": "0.0435 ± 0.0005", "unit": "s⁻¹"}]}, {"substance": "LovD G0 (Aspergillus terreus; C40A/C60N)", "values": [{"measurement": "Km", "setting": "[2]", "value": "0.67 ± 0.12", "unit": "mM"}, {"measurement": "kcat", "setting": "[2]", "value": "0.011 ± 0.0005", "unit": "s⁻¹"}, {"measurement": "Km", "setting": "[1]", "value": "770 ± 170", "unit": "µM"}, {"measurement": "kcat", "setting": "[1]", "value": "0.011 ± 0.0005", "unit": "s⁻¹"}]}]}
